This is an account of results in article doi:10.1101/2020.05.14.097071.

The target of test [1] is monomeric RAD51 (HumRadA22). Kind of test: fluorescence polarisation. For orientation: In fluorescence polarisation assays a small probe gives low polarisation when free and higher when bound to something large.
The target in test [2] is monomeric RAD51 (HumRadA22).
Test [3] deals with monomeric RAD51 (HumRadA22). Put plainly: ITC. On the technique in general: Isothermal titration calorimetry measures the heat released or taken up as one component is titrated into another.

What is called Kd is the concentration at which binding is half-saturated. A low value points to tighter binding.

Where two headings read alike, the source gives them in different places.

GB1-BRC4 (peptide): the Kd was determined as 0.038 µM in test [1], 0.021 µM in test [2] and 0.011 µM in test [3].

In test [1], GB1-BRC7-8 (peptide) came in with a Kd of 11 µM.

BRC4 with deletion of Lys1530 (peptide) registered a Kd in test [2] of 4.1 µM.

For GB1-BRC4-5 (peptide), in test [1], the Kd came to 2.1 µM.

Substance BRC8-2(S2056A) (peptide) came in with a Kd in test [3] of 0.005 µM. This counts as single-digit nanomolar.
